Source: FireProtDB (doi:10.1016/j.jmb.2004.09.082)

Conditions: Escherichia coli (strain K12); pH 7.8; 25 °C; GdnHCl; Chromatography; Tris-HCl 5 mM; KCl 200 mM; reversible: yes; whole UniProt chain shown

B1: Co-chaperonin GroES wild type, P0A6F9 (protein)
chain: MNIRPLHDRVIVKRKEVETKSAGGIVLTGSAAAKSTRGEVLAVGNGRILENGEVKPLDVKVGDIVIFNDGYGVKSEKIDNEEVLIMSESDILAIVEA
  denaturant m value: 2.3 kcal/mol/M
  unfolding free energy: 2.3 kcal/mol
